Results published in the RNAGym collection of RNA variant scans (doi:10.1073/pnas.2313332121).

B1: TPR t1 (parent)
chain: GACCAAUCUGCCCUCAGAGCUCGAGAACAUCUUCGGAUGCAGAGGAGGCAGGCUUCGGUGGCGCGAUAGCGCCAACGUCCUCAACCUCCAAUGCAUCCCACCACAUGAUGAUGCCUGAAGAGCCUUGGUUUUUUG

Variants of: B1
Assay: polymerase ribozyme fitness, log enrichment relative to wild type (log ratio); higher = more active; in vitro selection for triplet polymerase activity
Outline: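 Mutant libraries of both subunits of a heterodimeric triplet polymerase ribozyme were PCR-built, transcribed, and selected once in triplicate, with frozen incubation at −7 °C and capture of gel-excised extended constructs on streptavidin beads before RT-PCR. Illumina sequencing of input and output libraries was filtered to genotypes with ≥10 input reads and ≥1 read per output. Fitness is the logarithm of genotype enrichment over wild-type enrichment, using inverse-variance-weighted replicate averages. The logarithm is base 2.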

Variant	polymerase ribozyme fitness (log ratio)
GACCAACCUGCCCUCAGAGCUCGAGAACAUCUUCGGAUGCAGAGGAGGCAGGCUUCGGUGGCGCGAUAGCGCCAACGUCCUCAACCUCUAAUGCAUCCCACCACAUGAAGAUGCCUGAAGAGCCUUGGUUUUUUG [U7C C89U U109A]	-4.17
GACCAACCUGCCCUCAGAGCUCGAGAACAUCUUCGGAUACAGAGGAGGCAGGCUUCGGUGGCGCGAUAGCGCCAACGUCCUCAACCUCCAAUGCAUCCCACCACAUGAUGAUGCUUGAAGAGCCUUGCUUUUUUG [U7C G39A C115U G128C]	-3.58
GACCAACCUAGCCUCAGAGCUCGAGAACAUCUUCGGAUGCAGAGGAGGCAGGCUUCGGUGGCGCGAUAGCGCCAACGUCCUCAACCUCCAUUGCAUCCCACCACAUGAUGGUGCCUGAAGAGCCUUGGUUUUUUG [U7C G10A C11G A91U A111G]	-1.99
GACCAACCUGCCCUCAGAGCUCGAGAACAUCUUCGGAUGCACAGGAGGCAGGCUUCGGUGGCGCGAUAGCGACAACGUCCUCAACCUUCAAUGCAUCCCACCACAUGAUGAUGCUUGAAGAGCCUUGGUUUUAUG [U7C G42C C72A C88U C115U U133A]	-0.456
GACCAACCUGCCCGCAGAGCUCGAGAACAUCUUCGGCUGCAGAGGAGGCAGGCUUCGGUGGCGCGAUAGCGCCAACGUCCUCAACCUCCAAUGCAUCCCACCACAUGAUGAUGCCUGAAGAGCCUUGGUUUUUUG [U7C U14G A37C]	-1.12
GACCAACCUGCCCUCAGAGCUCGAGAACAUCUUCGGAUGCAUAGGAAGCAGGCUUCGGUGGCGCGAUAGCGCCAACGUCCUCAACCUCCAAUGCAUCCCACCACAUGAUGAUGCCUGAAGAGCCUUGGUUUUUUG [U7C G42U G47A]	-1.32
GACCAAGCUGCCCUCAGAGCUCGAGAACAUCUUCGGAUGCGGAGGAGGCAGGAUUCGGUGGCGCGAUAGCGGCAACGUUCUCAACCUCCUAUGCAUCCCACCACAUGAUGCUGCCUGAAGAGCCUUGGUUUUUUG [U7G A41G C53A C72G C79U A90U A111C]	-2.28
GACCAACCUGCCCUCAGAGCUCGAGAACAUUUUCGGAUGCAGAGGAGGCAGGCUUCGGUGCCGCGAUAGCUGCAACGUCCUCAACCUCCAAUGCAUCCCACCACAUGAUGAUGCCUGAAUAGCCUUGGUUUUUUG [U7C C31U G61C G71U C72G G120U]	-5.19
GACCAAGCUGCCCUCAGAGCUCGUGAACAUCUUCGGAUGCAGAGGAGGCAGGCUUCGGUGGCGCGAUAGCGCCAACGUCCUCAACCUCCAAUGCAUCCCACGACAUGAAGAUGCCUGAAGAGCCUUGGUUUUUUG [U7G A24U C102G U109A]	-4.85
GACCAAGCUGCCCUCAGAGCUCGAGAACAUCUUCGGAUGCAGAGGUGGCAGGCUUCGGUGGCCCGAUAGCGCCAACGUCCUCAACCUCCAAUGCAUCCCACAAAAUGAUGUUGCCUGAAGAGCCUUGCUUUUUUG [U7G A46U G63C C102A C104A A111U G128C]	-7.59
GACCAACCUGCCCUCAGAUCUCGAGAACAUCUUCGGAUGCAGAGGAGGCAGGCCUCGGUGGCGCGAUAGCGGCAACGUCCUCAACCUCCAAUGCAUCCCACCACAUGAUGAUGCCUGAAGAGCCUUGGUUUUUUG [U7C G19U U54C C72G]	-3.1
GACCAACCUGCCCACAGAGCUCGAGAACAUCUUCGGAUGCAGAGGUGGCAGGCUUCGGUGGCGCGAUAGCGCCAACGUCCUCAACCUCCAAUGCAUCCCACCACAUGAUGAUGCCUGAAGAGCCUUGGUUUUUUG [U7C U14A A46U]	-2.65
GACCAAGCUGCCCUCAGAGCUCGAGAACAUCUUCGGAUGCAGAGGAGGCAGGCUUCGGUGGCGCGAUAGCGCCAACGUCCUCAACCUCCAAUGCAUCCCACCCCAUGAUGAUGCCUGAAAAGCCUUGGUUUUUUG [U7G A103C G120A]	-2.83
GACCAACCUGCCCUCAGAGCUCGAGAACAUCUUCGGAUGCAGAGGAGGCAGGCUUCGGUGGCGCGAUAGCGCCAACGGCCUGAACCUCCAAUGCAUCCAACCACAUGAUGAGGCCUGAAGAGCCUUGUUUUUUUG [U7C U78G C82G C99A U112G G128U]	-5.9
GACCAAGCUGCACUCAGAGCUCGAGAACAUCUUCGGAUGCAGAGGAGGCAGGCUUCGGUGGCGCGAUAGCGCCAACGUCCUCAACCUCCAAUGCAUUCCACCACAUGAUGAUGCCUCAAGAGCCUUGGUUUUUUG [U7G C12A C97U G117C]	-3.54
GACCAACCUGCCCUCAGAGCUCGAGAACAUCUUCGGAUGCAGAGGAGGCAGGCUUGGGUGGCGCGAUAGCGCCAACGCCCUCAUCCUCCAAUGCAUCCCACCACAUGAUGAUCCCUGAAGAGCCUUGGUUUUUUG [U7C C56G U78C A84U G113C]	-2.73
GACCAACCUGCCCUCAGAGCUCGAGAACAUCUUCGGAUGCAGAGGAGGCAGGCUUCGCUGGCGCGAUAGCGCCAACGUCCUCAACCUCCACUGCAUCCCACCACAUGAUGAUGCCUGAAGAGCCUUGGUUUUUUG [U7C G58C A91C]	-1.02
GACCAACCUGCCCUCAGAGCUCGAGAACAUCUUCGGAUGCAGAGGAGGCAGGCUUCGGUGGCGCGAUAGCACCAACGUCCUCAACCUCCAAUGCAUCCCACCACAUGAUGAUGCCUGAAGAGCCUUUGUUUUGUG [U7C G71A G127U U133G]	-1.83
GACCAAGCUGCCCUCAGAGCUCGAGAACAUCUUCGGAUGCAGAGGAGGCAGGCUUCGGUGGCGCGAUAGCGCCAACGUCCUCAGCCUCCAAUGCAUCCCACCACAUGAUGAUGCCUGAAGAGCCUUGGUUUUGUU [U7G A84G U133G G135U]	0.51
GACCAAGCUGCCCUCAGAGCUCGAGAACAUCUUCGGCUGCAGAGGAGGCAGGCUUCGGUGGCGCGAUAGCGCCAACGUCCUCAACCUCCAAUGCCUCCCACCACAUGAUGAUGCCUGAAGAGCCUUGGUUUUUUG [U7G A37C A95C]	0.483
GACCAAGCUGCCCUCUGAGCUCGAGAACAUCUUCGGAUGCAGUGGAGGUAGGCUUCGGUGGCGCGAUAGAGCCAACGUCCUCAACCUCAAAUGCAUCCCACCACAUGAUGAUGCCGGAAGAGCCUUGGUUUUUUG [U7G A16U A43U C49U C70A C89A U116G]	-4.88

Variant	polymerase ribozyme fitness (log ratio)
GACCAACCUGCCCUCAGAGCUCGAGAACAUCUUCGGAUGAAGAGGAGGCAGGCUUGGGUGGCGCGAUAGCGCCAACGUCCUCAACCUCCAAUGCAUCCCACCACAUGAUGAUGCCUGAAGAGCCUUGGUUUUUUG [U7C C40A C56G]	-1.43
GACCAAGCUGCACUCAGAGCUCGAGAACAUCUUCGGAUGCAGUGGAGGCAGGCUUCGGUGGCGCGAUAGCGCAAACGUCCUCAACCUCCAAUGCAUCCCACCACAUGAUGAUGCCUGAAGAGCCUUGGUUUUUUG [U7G C12A A43U C73A]	-1.44
GACCAACCUGCCCUCAGAGCUCGAGAACAUCUUCGGAUGCAGAGGAGGCAGGCUUCGGUGGCGCGAUAGCGCAAACGUCCUCAACCUCCAAUGCAUCCCACCACAUGAUGAUGCCUGAAGAGCCUUGGUUUUUUG [U7C C73A]	-0.286
GACCAACCUGCCCCCAGAGCUCGAGAACAUCUUCGGAUGCAGAGGAGGCAGGCUUCGGUGGCGCGAUAGUGCCAACGUCCUCAACCUCCAAUGCAUCCCACCACAUGAUGAUGCCUGAAGAGCCUUGGUUUUUUG [U7C U14C C70U]	-2.11
GACCAACCUGCCCUCAGAUCUCGAGAACAUCUUCGGAUGCAGAGGAGGCAGGCCUCGGUGGCGCGCUAGCGCCAACGUCCUCAACCUCCAAUGCAUCCCACCACAUGAUGAUGCCUGAAGAGCCUUGGUUUUUUG [U7C G19U U54C A66C]	-5.92
GACCAAGCUGCGCUCAUAGCGCGAGAACAUCUUCGGAUGCAGAGGAGGCAGGCUUCGGUGGCGCGAUAUCGCCAACGUCCUCAACUUCCAAUGCAUCCCACCACAUGAUGAUGCCUGAAGAGCAUUGGUUUUUUG [U7G C12G G17U U21G G69U C86U C124A]	-6.15
GACCAACCUGCCCUCAGAGCUCGAGAACAUCUUCGGAUGCAGAGGAGUCGGGCUUCGGUGACGCGAUAGCGCCAACGUCCUCAACCUCUAAUGCAUCCCACCACAUGAUGAUGCCUGAAGAGCCUUGGUUUUUUG [U7C G48U A50G G61A C89U]	-1.71
GACCAAGCUGCCCUCAGAGCUCGAGAACAUCUUCGGAUGCAGAGGUGGCAGGCUUCGGUGCCGCGAUAGCGCCAACGUCCUCAACCUCCAAUGCAUCCCACCACAUGAUGAAGCCUGAAGAGCCUUGGUUUUUUG [U7G A46U G61C U112A]	-1.98
GACCAACCUGCCCUCAGAGCUCGAGAACAUCUUCGGAUGCAGAGGAGGCAGGCUUCGGUGGUGCGAUAGCGCCAACGUCCUCAACCUCCAAUGCAUCCCACCACAUGAUGUUGCCUGAAGAGCCUUGGUUUUAUG [U7C C62U A111U U133A]	-2.88
GACCAACCUGCCCUCAGAGCUCGAGAACAUCUUCGGAUGCAGAGGAGGCAGGCUUCGGUGGCGCGAUAGCGCCAACGUCCUCAACCUCCAAUGCAUCCCACCACACGAUGAUGCCUGAAGAGCCUUGGUUUUUUG [U7C U106C]	-0.478
GACCAAGCUGCCGUCAGAGCUCGAGAACAUCUUCGGAUGCAGAGGAGGCAGGCUUCGGUGGCGCGAUAGCGCCAACGUCCUCAACCUCCAAUGCAUCCCACCACAUGAUGAUGCCUGAAGAGCCUUGGUUUUUUG [U7G C13G]	0.14
GACCAAGCUGCCCUCAGAGCUCGAGAACUUCUUCGGAUGCAGAGGAGGCAGGCUUAGGUGGCGCGAUAGCGCCAAUGUCCUCAACCUCCAAUGCAUCCCACCACAUGAUGAUGCCUGAAGAGCCUUGGUUUUUUG [U7G A29U C56A C76U]	-1.78
GACCAACCUGCCCUCAGAGCUCGAGAACAUCUUGGGAUGCAGAGGAGGCAGGCUUCGGUGGCGCGAUACCGCCAACGUCCUCAACCUCCAAUGCAUCCCACCACAUGAUGAUGCCUGAAAAGCCUUGGUUUUUUG [U7C C34G G69C G120A]	-6.41
GACCAAGCUGCCCUCAGAGCUCGAGAACAUCUUCGGAUGCAGAGGAGGCAGGCUUCGGUGGCGCGAUAGCGCCAACGUCCUCUACCUCCAAUGCAUCCCACCACAUGAUGAUGCCUGAAGAGCCUUGGUUUUUUG [U7G A83U]	-0.221
GACCAACCUGCCCUCAGAGCUCGAGAACAUCUUCGGAUGCAGAGGAGGCAGGCUUCGGUGGCGCGAUAGCGCCAACGUCCUCAACCUCCAAUACAUCCCACCACAUGAUGAUGCCUGAAGAGCCUUGGUUUCUUG [U7C G93A U132C]	-0.396
GACCAAGCUGCCCUCAGAGCUCGAGAACCUCUUCGGAUGCAGAGGAGGCAGGCUUCGGUGGCGCGAUAGCGACAACGUCCUAAACCUCCAAUGCAUCCCACCACAUGAUGAUGCCUGAACAGCCUUGGUUUUUUG [U7G A29C C72A C82A G120C]	-0.586
GACCAAGCUGCCCUCAGAGCUCGAGAACAUCUUCGGAUGCAGAGGAGGCAGGCUUCGGUGGCGCGAUAGCGCCAACGUCCUCUACCACCAAUGCUUCCCACCACAUGAUGAUGCCUGAAGAGCAUUGGUUUUUUG [U7G A83U U87A A95U C124A]	0.494
GACCAAGCUGCCCUCAGAGCUCGAGAACAUCUUCGGAUGCAGAGGAGGCAGGCUUCGGUGGCGCGAUAGCGCCAACGUCCUCAACCUCCAAUGCGUCCCACCACAUGAUGAUGCCUGAAGAGCCUUGGUUUUUUG [U7G A95G]	0.461
GACCAAGCUGCCCUCAGUGCUCGAGAACAUCUUCGGAUGCAGAGGAGGCAGGCUUCGGUGGCGCGAUAGCGCCAACGUCCUCAACCUCCAAUGCAUCCCACCACAUGAUGAUGCCUGAAGUGCCUUGGUUUUUUG [U7G A18U A121U]	0.525
GACCAACCUGCCCUCAGAGCGCGAGAACAUCUUCGGAUGCAGAGCAGGCAGGCUUCGGUGGCGCGAUAGCUCCAACGUCCUCAACCUCCAAUGCAUCCCACCACAUGAUGAUGCCUGAAGAGCCUUGGUUUUUUG [U7C U21G G45C G71U]	-2.5
GACCAACCUGCCCUCAGAGCUCGAGAACAUCUUCGGAUGCAGAGGAGUCGGGCUUCGGUGGCGCGAUAGCGCCAACGUCCUCAACCUCUAAUGCAUCCCACCACAUGAUGAUGCCUGAAGAGCCUUGGUUUUUUG [U7C G48U A50G C89U]	-1.26
